Changes are numbered by the printed parent chain.
B1: 532 (protein)
chain: LDNGLARTPTMGWLHWERFMCNLDCQEEPDSCISEKLFMEMAERMVSEGWKDAGYEYLCIDDCWMAPQRDSEGRLQADPQRFPHGIRQLANHVHSKGLKLGIYADVGNKTCAGFPGSFGYYDIDAQTFADWGVDLLKFDGCYCDSLENLADGYKHMSLALNRTGRSIVYSCEWPLYMWPFQMPNYTEIRQYCNHWRNFADIDDSWASIKSILDWTSRNQERIVDVAGPGGWNDPDMLVIGNFGLSWDQQVTQMALWAIMAAPLFMSNDLRHISPQAKALLQDKDVIAINQDPLGKQGYQLRKGDNFEVWERPLSGDAWAVAIINRQEIGGPRSYTIPVASLGKGVACNPACFITQLLPVKRQLGFYNWTSRLKSHINPTGTVLLQLENTMQMSLKDLL
modifications: Synthetic Polypeptide sequence of Variant No. 532 of mature Human GLA
B2: 537 (protein)
chain: B1 chain with M182Y
modifications: Synthetic Polypeptide sequence of Variant No. 537 of mature Human GLA
B3: 539 (protein)
chain: B1 chain with M182K, A287H
modifications: Synthetic Polypeptide sequence of Variant No. 539 of mature Human GLA
B4: 542 (protein)
chain: B1 chain with M182K, D282G
modifications: Synthetic Polypeptide sequence of Variant No. 542 of mature Human GLA
B5: 540 (protein)
chain: B1 chain with M182K, A287M
modifications: Synthetic Polypeptide sequence of Variant No. 540 of mature Human GLA
B6: 536 (protein)
chain: B1 chain with M182V
modifications: Synthetic Polypeptide sequence of Variant No. 536 of mature Human GLA
B7: 534 (protein)
chain: B1 chain with M182R
modifications: Synthetic Polypeptide sequence of Variant No. 534 of mature Human GLA
B8: 533 (protein)
chain: B1 chain with M182Q
modifications: Synthetic Polypeptide sequence of Variant No. 533 of mature Human GLA
B9: 538 (protein)
chain: B1 chain with M182K, A287C
modifications: Synthetic Polypeptide sequence of Variant No. 538 of mature Human GLA
B10: 541 (protein)
chain: B1 chain with M182K, D282A
modifications: Synthetic Polypeptide sequence of Variant No. 541 of mature Human GLA
B11: 535 (protein)
chain: B1 chain with M182T
modifications: Synthetic Polypeptide sequence of Variant No. 535 of mature Human GLA

Key:
Type in all cases: biochemical
[1] = HTP-analysis of supernatants pretreated with acid (MUGal hydrolysis); details: activity of the variant/activity of Rd3BB (SEQ ID NO: 13); challenge at pH 3.7
In short: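 Fluorescence of MUGal hydrolysis (Ex. 355 nm, Em. 448 nm) is read after sodium carbonate quench. The enzyme source is INVSc1 yeast culture supernatant, first exposed to pH 3.3-4.3 McIlvaine buffer at 37° C. for 1-3 h, then reacted at pH 4.8 for 30-180 minutes.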

[2] = HTP-analysis of yeast culture supernatants, no challenge (MUGal hydrolysis); details: activity of the variant/activity of Rd3BB (SEQ ID NO: 13)
In short: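 GLA variants were expressed in INVSc1 yeast grown in SD-Ura broth with glucose at 30° C., and culture supernatants were collected after 66-84 h. Supernatant was mixed with McIlvaine buffer pH 4.8 and MUGal (2 mM stock) in 50 mM citrate, 200 mM KCl, pH 4.6, incubated at 37° C. for 30-180 minutes, then quenched with sodium carbonate.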

[3] = HTP-analysis of supernatants pretreated with base (MUGal hydrolysis); details: activity of the variant/activity of Rd3BB (SEQ ID NO: 13); challenge at pH 9.7
In short: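 Fluorescence of released 4-MU (Ex 355 nm, Em 448 nm) after carbonate quench reports MUGal hydrolysis by GLA variants secreted from INVSc1 yeast. Before the acidic (pH 4.3-4.8) 30-180 min reaction at 37° C, supernatants had been pre-incubated at pH 7.0-9.7 for 1-18 h at 37° C.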

Molecule	Relative Activity of GLA Variants After Challenge at pH 3.7 [1]	Relative Activity of GLA Variants After No Challenge (NC) [2]	Relative Activity of GLA Variants After Challenge at pH 9.7 [3]
B1	+ (+ = 1.5 to 5 relative activity over Rd3BB (SEQ ID NO: 13))	+ (+ = 1.5 to 5 relative activity over Rd3BB (SEQ ID NO: 13))	++ (++ = >5 to 10 relative activity over Rd3BB (SEQ ID NO: 13))
B2	+ (+ = 1.5 to 5 relative activity over Rd3BB (SEQ ID NO: 13))	+ (+ = 1.5 to 5 relative activity over Rd3BB (SEQ ID NO: 13))	++ (++ = >5 to 10 relative activity over Rd3BB (SEQ ID NO: 13))
B3	+ (+ = 1.5 to 5 relative activity over Rd3BB (SEQ ID NO: 13))	+ (+ = 1.5 to 5 relative activity over Rd3BB (SEQ ID NO: 13))	++ (++ = >5 to 10 relative activity over Rd3BB (SEQ ID NO: 13))
B4	+ (+ = 1.5 to 5 relative activity over Rd3BB (SEQ ID NO: 13))	+ (+ = 1.5 to 5 relative activity over Rd3BB (SEQ ID NO: 13))	++ (++ = >5 to 10 relative activity over Rd3BB (SEQ ID NO: 13))
B5	+ (+ = 1.5 to 5 relative activity over Rd3BB (SEQ ID NO: 13))	+ (+ = 1.5 to 5 relative activity over Rd3BB (SEQ ID NO: 13))	++ (++ = >5 to 10 relative activity over Rd3BB (SEQ ID NO: 13))
B6	+ (+ = 1.5 to 5 relative activity over Rd3BB (SEQ ID NO: 13))	+ (+ = 1.5 to 5 relative activity over Rd3BB (SEQ ID NO: 13))	++ (++ = >5 to 10 relative activity over Rd3BB (SEQ ID NO: 13))
B7	+ (+ = 1.5 to 5 relative activity over Rd3BB (SEQ ID NO: 13))	+ (+ = 1.5 to 5 relative activity over Rd3BB (SEQ ID NO: 13))	++ (++ = >5 to 10 relative activity over Rd3BB (SEQ ID NO: 13))
B8	+ (+ = 1.5 to 5 relative activity over Rd3BB (SEQ ID NO: 13))	+ (+ = 1.5 to 5 relative activity over Rd3BB (SEQ ID NO: 13))	++ (++ = >5 to 10 relative activity over Rd3BB (SEQ ID NO: 13))
B9	+ (+ = 1.5 to 5 relative activity over Rd3BB (SEQ ID NO: 13))	+ (+ = 1.5 to 5 relative activity over Rd3BB (SEQ ID NO: 13))	+ (+ = 1.5 to 5 relative activity over Rd3BB (SEQ ID NO: 13))
B10	+ (+ = 1.5 to 5 relative activity over Rd3BB (SEQ ID NO: 13))	+ (+ = 1.5 to 5 relative activity over Rd3BB (SEQ ID NO: 13))	++ (++ = >5 to 10 relative activity over Rd3BB (SEQ ID NO: 13))
B11	+ (+ = 1.5 to 5 relative activity over Rd3BB (SEQ ID NO: 13))	+ (+ = 1.5 to 5 relative activity over Rd3BB (SEQ ID NO: 13))	++ (++ = >5 to 10 relative activity over Rd3BB (SEQ ID NO: 13))

Source: patent US11278600B2, “Human alpha-galactosidase variants” (Codexis, Inc., priority 2014, dated 2022)
